The record followed here is patent EP2074145B1.

For assay [1], the target named is T1, peptide 13 (aa 13-21 of Aβ).
T1 sequence (peptide, biotinylated (site not stated)): HHQKLVFFA
As to the kind of experiment: ELISA with biotinylated peptide Amyloid beta 13-21. Background: ELISA stands for enzyme-linked immunosorbent assay.

The target in assay [2] is biotinylated complete Aβ1-42 peptide (Bachem) (UniProt P05067). The assay is described as follows: ELISA with biotinylated complete Aβ1-42 peptide.
biotinylated complete Aβ1-42 peptide (Bachem), sequence (P05067 672-713 limits assumed): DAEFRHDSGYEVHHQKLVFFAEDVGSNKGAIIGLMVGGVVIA
In assay [3] the target is T1, peptide 13 (aa 13-21 of Aβ). As to the kind of experiment: ELISA with biotinylated peptides (Mimotopes protocol).

Regarding “humanized anti-human amyloid beta monoclonal antibody hC2”, the O.D in assay [1] is 1.23 O.D; in assay [2], 0.9 O.D. In assay [3], this substance yielded a percent higher affinity than to the whole Aβ1-42 protein of 36%.
